Measurements taken from US20070232789A1.
One block for each substance: values may come before it.

What was measured:
[1] = biological target: low-density lipoprotein receptor-related protein (LRP), purified (human) (UniProt Q07954); assay: SPR, BIAcore 3000, one-site model, KD = koff/kon
[2] = biological target: low-density lipoprotein receptor-related protein (LRP), purified (human) (UniProt Q07954); assay: SPR, BIAcore 3000
[3] = biological target: A1/A3-C1-C2 heterodimer of factor VIII, plasma-derived (human) (UniProt P00451); assay: cell-based or functional assay
Sequence of A1/A3-C1-C2 heterodimer of factor VIII, plasma-derived (human) (P00451 20-391, chain 1 of 2): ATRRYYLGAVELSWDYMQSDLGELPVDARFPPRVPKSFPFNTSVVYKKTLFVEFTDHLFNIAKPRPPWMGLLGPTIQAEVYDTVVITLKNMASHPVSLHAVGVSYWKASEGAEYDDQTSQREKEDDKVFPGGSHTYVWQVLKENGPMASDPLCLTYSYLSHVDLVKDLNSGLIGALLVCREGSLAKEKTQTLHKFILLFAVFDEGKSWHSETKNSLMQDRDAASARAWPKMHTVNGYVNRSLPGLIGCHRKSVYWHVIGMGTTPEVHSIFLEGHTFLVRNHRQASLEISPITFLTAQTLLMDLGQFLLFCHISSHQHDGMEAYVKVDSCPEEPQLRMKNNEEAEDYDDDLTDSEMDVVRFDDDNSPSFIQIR
Sequence of A1/A3-C1-C2 heterodimer of factor VIII, plasma-derived (human) (P00451 1709-2351, chain 2 of 2): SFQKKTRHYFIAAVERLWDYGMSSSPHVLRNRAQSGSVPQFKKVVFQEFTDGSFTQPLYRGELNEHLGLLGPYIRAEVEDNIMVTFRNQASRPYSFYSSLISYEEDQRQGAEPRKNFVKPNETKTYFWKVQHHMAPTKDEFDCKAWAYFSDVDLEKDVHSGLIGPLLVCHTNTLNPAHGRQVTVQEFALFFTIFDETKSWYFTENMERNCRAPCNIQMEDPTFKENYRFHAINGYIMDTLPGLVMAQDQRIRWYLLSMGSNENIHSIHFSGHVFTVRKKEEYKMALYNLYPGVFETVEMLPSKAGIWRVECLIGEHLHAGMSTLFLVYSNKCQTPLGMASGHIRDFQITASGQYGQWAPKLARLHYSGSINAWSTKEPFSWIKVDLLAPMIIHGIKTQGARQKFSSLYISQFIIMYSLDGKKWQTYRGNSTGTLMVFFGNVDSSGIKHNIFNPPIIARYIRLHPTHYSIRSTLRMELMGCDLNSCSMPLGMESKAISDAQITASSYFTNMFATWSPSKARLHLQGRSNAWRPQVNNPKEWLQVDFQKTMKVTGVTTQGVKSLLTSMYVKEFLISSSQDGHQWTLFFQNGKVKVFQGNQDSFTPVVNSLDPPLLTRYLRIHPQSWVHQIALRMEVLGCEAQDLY

[4] = biological target: low-density lipoprotein receptor-related protein (LRP), purified (human) (UniProt Q07954); assay: homologous ligand displacement: 125I-fVIII (1 nM) on LRP-coated microtiter wells, competitor unlabeled fVIII
[5] = biological target: low-density lipoprotein receptor-related protein (LRP), purified (human) (UniProt Q07954); assay: homologous displacement on LRP-coated wells
[6] = biological target: low-density lipoprotein receptor-related protein (LRP), purified (human) (UniProt Q07954); assay: homologous displacement of ^125I-fVIII (1 nM) by unlabeled fVIII on LRP-coated wells, LIGAND fit

Substance: recombinant A2 mutant #5 (Lys-466 to Ala) (from UniProt P00451 392-759)
- Kd [1]: 0.6 µM
- fold decrease of affinity against wt-A2 [2]: 28 fold
- Activity of reconstituted FVIIIa (% of wt activity) (% of wt activity) [3]: 130

Substance: recombinant A2 mutant #7 (Arg-484 to Ala) (from UniProt P00451 392-759)
- Kd [1]: 0.32 µM
- fold decrease of affinity against wt-A2 [2]: 15 fold
- Activity of reconstituted FVIIIa (% of wt activity) (% of wt activity) [3]: 64.9

Substance: factor VIII purified from therapeutic concentrates (Method M, American Red Cross), P00451 20-1667; P00451 1668-2351
- IC50 (read off the curve) [4]: 0.1 µM
- percent of binding competed by an excess of unlabeled fVIII [5]: > 90%
- Kd [6]: 0.116 µM

Substance: recombinant A2 mutant #6 (Arg-471 to Ala) (from UniProt P00451 392-759)
- Kd [1]: 0.4 µM
- fold decrease of affinity against wt-A2 [2]: 19 fold
- Activity of reconstituted FVIIIa (% of wt activity) (% of wt activity) [3]: 34.6

The remaining lines, values ahead:

- Kd [1]: 0.019 µM
- Activity of reconstituted FVIIIa (% of wt activity) (% of wt activity) [3]: 417
Substance: recombinant A2 mutant #3 (His-378 to Ala) (from UniProt P00451 392-759)

- Kd [1]: 0.018 µM
- Activity of reconstituted FVIIIa (% of wt activity) (% of wt activity) [3]: 365
Substance: recombinant A2 mutant #2 (Lys-377 to Ala) (from UniProt P00451 392-759)

- Kd [1]: 0.047 µM
- Activity of reconstituted FVIIIa (% of wt activity) (% of wt activity) [3]: 291
Substance: recombinant A2 mutant #4 (Lys-380 to Ala) (from UniProt P00451 392-759)
